# Results: publication PMC3808375, “Reduction of Decoy Receptor 3 Enhances TRAIL-Mediated Apoptosis in Pancreatic Cancer” (PLoS ONE, 2013)
# Like-named read-outs stand apart in the source and are kept apart here.
# Columns and labels:
# [1] = biological target: recombinant human DcR3 (decoy receptor 3) (human) (UniProt O95407); test: SPR; Biacore 3000; DcR3 amine-coupled to a CM5 chip; TRAIL 1-2048 nM or LIGHT 1-512 nM flowed at 20 µl/minute; HBS-EP buffer (10 mM HEPES pH 7.4, 150 mM NaCl, 3.4 mM EDTA, 0.005% Surfactant P20); 1:1 binding model, global analysis
# Chain of recombinant human DcR3 (decoy receptor 3) (human) (O95407 30-300): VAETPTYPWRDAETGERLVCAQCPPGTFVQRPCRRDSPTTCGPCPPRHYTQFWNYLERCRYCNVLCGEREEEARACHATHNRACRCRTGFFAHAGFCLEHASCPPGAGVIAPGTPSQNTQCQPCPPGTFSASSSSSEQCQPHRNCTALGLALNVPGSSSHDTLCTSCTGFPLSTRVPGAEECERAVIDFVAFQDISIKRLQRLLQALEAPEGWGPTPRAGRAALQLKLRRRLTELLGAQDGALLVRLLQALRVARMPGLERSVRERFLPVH
# [2] = biological target: recombinant human DcR3 (decoy receptor 3) (human) (UniProt O95407); test: as above; remark: listed apart in the source
substance,measurement,setting,value
recombinant human TRAIL (TNF-related apoptosis-inducing ligand) (from UniProt P50591 1-281),kon,[1],19700 M⁻¹ s⁻¹
same,Kd,[2],0.0528 µM
same,koff,[2],0.00104 s⁻¹
same,kon,[2],19400 M⁻¹ s⁻¹
